Assay results as given in the nanobody polyreactivity screen of Harvey et al. (2022).

Experiment: yeast display, Sf9 membrane polyspecificity reagent, FACS + sequencing; frameworks hold sequencing errors
How it was run: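 Nanobodies from a synthetic yeast display library (Saccharomyces cerevisiae BJ5465), induced 36–48 hours with galactose, were stained 1 hour at 4 °C with 10% biotinylated, detergent-solubilized Sf9 membrane reagent, enriched on streptavidin microbeads, then FACS-sorted. Anti-HA (expression) and streptavidin (reagent binding) fluorescence set low and high (top ~1%) gates. Polyreactivity labels come from the gate of origin. Genes were colony-PCR amplified, MiSeq 2 × 250 sequenced and filtered by CDR length.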

| Sequence | polyreactivity (PSR sort gate) |
| --- | --- |
| QVQLVESGGGLVQAGGSLRISCAASGFTLSYYAMGWYRQAPGKERELVASISAIGGITYYADSVKGRFTISRDNAKNTVYLQMNSLKPEDTAVYYCARQGRRYRRFDSWGQGTQVTVSS | high polyreactivity |
| QVQLVESGGGLVQAGGSLRISCAASGFTVWGYAMGWYRQAPGKERELVAGITTRGGSTYYADSVKGRFTISRDNAKNTVYLQMNSLKPEDTAVYYCNVVSSTRTYRYDYWGQGTQVTVSS | high polyreactivity |
| QVQLVESGGGLVQAGGSLRISCAASGIILGYYPMGWYRQAPGKERELVAAINWSGASTYYADSVKGRFTISRDNAKNTVYLQMNCLKPEDTAVYDCNAVGYYYRGTGEYDYWGQGTQVTVSS | high polyreactivity |
| QVQLVESGGGLVQAGGSLRISCAASGITFDQNAMGWYRQAPGKEREFVGAITRGSSTNYADSVKGRFTISRDNAKNTVYLQMNSLKPEETAVYYCNADGYARFRTYYCRDTREYDYWGQGTQVTVSS | low polyreactivity |
| QVQLVESGGGLVQAGGSLRISCAASGITFLEYAMGWYRQAPGKERELVATINSGGSTNYADSVKGRFTISRDNAKNTVYLQMNSLKQEDNAVYYCSADYGSDYTKGDYWGQGTQVTVSS | low polyreactivity |
| QVQLVESGGGLVQAGGSLRISCAASGITFSYYAMGWYIQAPGKERELVAAINSGGGSTYYADSVKGRFTISRDNAKNTVYLQMNRLKPEDTAVYYFAARYRSRYDYYYDRDYWGQGTQVTVSS | low polyreactivity |
| QVQLVESGGGLVQAGGSLRISCAASGITFYANVMGWYRQAPGKARELVAAISARRGSTYYADSVKGRFTISRDNAKNTVYLQMNSLKPEDTAVYYCATREAYRQQGGYGYWGQGTQVTVSS | high polyreactivity |
| QVQLVESGGGLVQAGGSLRISCAASGITFYGYDMGWYRQAPGKERELVAAISKSGGSTHYADSVKGRFTISRDNAKNTVYLQMNSLKPEDTAVYYCAAAYWTRLRRMDYWGQGTQVTVSS | high polyreactivity |
| QVQLVESGGGLVQAGGSLRISCAASGLTFDRYAMGWYRQAPGKERELVAAISGSGSSTYYADSAKGRFTISRDNAKNTVYLQMNSLKPEDTAVYYCAADRDLGYDTRYNYWGQGTQVTVSS | low polyreactivity |
| QVQLVESGGGLVQAGGSLRISCAASGLTFRLYVMGWYRQAPGKERELVATISRSGGSTHYADSVKGRFTISRDNAKNTVYLQMNSLKPEDTAVYDCAARLFYFGSDFDYWGQGTQVTVSS | high polyreactivity |
| QVQLVESGGGLVQAGGSLRISCAASGMIFDWYTMGWYRQAPGKERELVAAISWRGGRTYYADSVKGRFTISRDNAQNTVYLQMNSLKPEDTAVYYCAAEGLFTGRVSRFADDHWGQGTQVTVSS | low polyreactivity |
| QVQLVESGGGLVQAGGSLRISCAASGNIFSYYAMGWYRQAPGKERELVAAISSGGSTYYADSVKGRFTISRDNGMNTVYLQMNSLKPEDTAVYYCNKLAYVGRYGYWGQGTEVTVSS | high polyreactivity |
| QVQLVESGGGLVQAGGSLRISCAASGNIFVDYAMGWYTQAPGKERELVATITRTGDSTTYADSVKGRFTISRDNAKNTVYLQMNSLKPEDTAVYYCNTDLRLVYRTKGFISWGYDYWGQGTQVTVSS | low polyreactivity |
| QVQLVESGGGLVQAGGSLRISCAASGPTFGYNGMGWYRQAPGKERELVAAINSGGNTNYADSVKGRFTISRDNAKYTVDFQLNSLKPEDTAVYYCAKYGTLYEPVPNEYDYWGQGTQVTVSS | low polyreactivity |
| QVQLVESGGGLVQAGGSLRISCAASGPTFPLYAMGGNRQAPGKERELVAAIRTGGSTNYADSVKGRFTISRDNAKNTVYLQMNSLKPEDTAVSYCAAVQRTDRSAHYSWGHGTQVTVSS | low polyreactivity |
| QVQLVESGGGLVQAGGSLRISCAASGRIFAGYSMGWYRQAPGKERELVAAIRTRGGSTYYADSVKGRFTISRDKAKNTVYLQMNSLKPEDTEVYYCAATPTWYIWYTYDYWGQGPQVTVSS | high polyreactivity |
| QVQLVESGGGLVQAGGSLRISCAASGRIFDTYVMGWYRQAPGKERELVAAISGSGGSTYYADSVKGRFTISRDNAKNTVYLQMNSLKPEDTAVYYCAAARRYYAYRYDYWGQGTQVTVSS | high polyreactivity |
| QVQLVESGGGLVQAGGSLRISCAASGRIFGGYAMGWYRQAPGKERELVAAITSGARTKYADSVKGRFTISRDNAKNTVYLQMNSLKPEDTAVYYCAADGFYDGDYWGQGTQVTVSS | high polyreactivity |
| QVQLVESGGGLVQAGGSLRISCAASGRIFGLYAMGWYRQAPGKERELVATINNSGGSTYYADSVKGRFTISRDNAKNTVYLEMKSLKPEDTAVYYCNAEFLYAASFIEYDYWGQVTQVTVSS | high polyreactivity |
| QVQLVESGGGLVQAGGSLRISCAASGRIFGTNAMGWYRQAPGKERELVADITSGGSTNYADSVKGRFTISRDNAKNTVYLQMNSLKPEDTAVYYCAAVVIGDLRWYRDEYWGQGTQVTVSS | low polyreactivity |
| QVQLVESGGGLVQAGGSLRISCAASGRIFKYYGMGWYRQAPGKERELVAAITRGDSTNYADSVKGRFTISRDNAKNTVYLQMNSLKPEETAVYYCNVGTRRGYDYWGQGTQVTVSS | high polyreactivity |
| QVQLVESGGGLVQAGGSLRISCAASGRIFNYYDMGWYRQAPGKERELVAAISWRGTSTRYADSVKGRFTISRDNAKNTVYLQMQSLKPEDTAVYYCAADDYARRFSFKYDYWGQGTQVTVSS | high polyreactivity |

| Sequence | polyreactivity (PSR sort gate) |
| --- | --- |
| QVQLVESGGGLVQAGGSLRISCAASGRIFRGYAMGWYRQAPGKEMELVAGITTSGGDTSYADSVKGRFTISRDNAKNTVYLQMNSLKPEDTAVYYCNASPFYYRPRYPMDYWGQGTQVTVSS | high polyreactivity |
| QVQLVESGGGLVQAGGSLRISCAASGRIFSYNAMGWYRQAPGKERELVASISRGGSTYADSVKGRFTISRDNAKNTVYLQMNRLQPADTAVYYCNAVHFSYEYDYWGQGTQVTVSS | high polyreactivity |
| QVQLVESGGGLVQAGGSLRISCAASGRIFTPNAMGWYRQAPGKERELVAAITWSGDNTYADSVKGRFTISRDNAKKTVYLHMNTLKPEDTAVYYCAAAYGYGHKKYGYWGQGTQVTVSS | low polyreactivity |
| QVQLVESGGGLVQAGGSLRISCAASGRIFYNNDMAWYRQAPGKERELVAAITVRGSITYYADSVKGRFTISRDNAKTTVYLHMNSLKPEDTAVYYCATEWVNRLYSWGQGTQVTVSS | low polyreactivity |
| QVQLVESGGGLVQAGGSLRISCAASGRIFYYYDMGWYRQAPGKERELVAAISRSGGRTYYADSVKGRFTISRDNANNTVYLHMNSLKPEDTAVYYCNVVRQGGTLGYDYWGQGTQVTVSS | high polyreactivity |
| QVQLVESGGGLVQAGGSLRISCAASGRILYLNAMGWYRQAPGIEREFVAAISKSGGTTYYADSVKGRFTISRDKAKHTDYLQMNSLKPEDTAVFYCAVDIVRCGRDSWGQGTQVTVSS | low polyreactivity |
| QVQLVESGGGLVQAGGSLRISCAASGRIYNRNAMGWYRQAPGKERELVAAIRSDGTTNYADSVKGRFTISRDNAKNTVYLQMISLKPEDTAVYYCNAEEGYHWWIIPEEDDYWGQGTQVTVSS | low polyreactivity |
| QVQLVESGGGLVQAGGSLRISCAASGRIYVYNVMGWSRQAPGKETELVAAISWGTGSTYADSVKGRFTISRDNAKNTVYLQMNSLKPEDTAVYYCAAAADYYYDHDYWGQGTQVTVSS | low polyreactivity |
| QVQLVESGGGLVQAGGSLRISCAASGRTFCNNAMGWYRQAPGKERELVAAITSTGSRTYYADSVKGRFTISRDNAKNTVYLQMNSLKPEDTAVYYCNRVSHLDYYWGQGTQVTVSS | high polyreactivity |
| QVQLVESGGGLVQAGGSLRISCAASGRTFLVYTMGWYRQAPGKERELVAAISWSDGSTYYADSVKGRFTISRDNAKNTVYLQMNSLKPEDTAVYYCAARRTGYLYRYGYWGQGTQVTVSS | low polyreactivity |
| QVQLVESGGGLVQAGGSLRISCAASGRTFSRYAMGWYRQAPGKERELVAAITRGGGGTYYADSVKGRFTISRDNAKNTVYLQMNSLKPEDTAVYYCNRVLLPGPQYQWGKAYDYWGQGTQVTVSS | high polyreactivity |
| QVQLVESGGGLVQAGGSLRISCAASGRTFWKYAMGWYRQAPGKERELVAAITASGARTYYADSVKGRFTISRDNAKNTVYLQMNSLKPEDTAVYYCNAGSVSDRQMDYWGQGTQVTVSS | low polyreactivity |
| QVQLVESGGGLVQAGGSLRISCAASGRTGKNAMVWYRQARGNERELVAASRYNGGSTYYADSVKGRFTISRDNANNTVYLQKNIMKPEYTAVYYCAAAFRRHNGSAFNYWGHGTQVTVSS | high polyreactivity |
| QVQLVESGGGLVQAGGSLRISCAASGRTLRYYAMGWYRQAPGKERELVAAITSSDRTYYADSVKGRFTISRDNAKNTVYLQMNSLKPEDTAVYYCAAYRATQFGYYYWGQGTQVTVSS | high polyreactivity |
| QVQLVESGGGLVQAGGSLRISCAASGSIFASKTMGWYRQAPGKERELVAGITKIGSSTYYADSVKGRFTISRDNAKNTVYLQMNSLKPEETAVYYCNAYLSPKQPLSPPEPTFEGGYWGQGTQVTVSS | low polyreactivity |
| QVQLVESGGGLVQAGGSLRISCAASGSIFDLNAMGWYRQAPGKERELVAAISSGGRTTYADSVKGRFTISRDNAKNTVYLQMNSLKPEDTAFYYCNAVGDVFPRTGPIYDYWGQGSQVTVSS | high polyreactivity |
| QVQLVESGGGLVQAGGSLRISCAASGSIFPFYAMGWYRQAPGKERELVAAISDRGGSTYYADSVKGRFTISRDNAKNTVYLQMNSLKPEDTAVYYCAKGGEVSQGYTDEYDYWGQGTQVTVSS | low polyreactivity |
| QVQLVESGGGLVQAGGSLRISCAASGSIFPYNDMGWYRQAPGKERELVAVITSSGGSTYYADSVKGRFTISRDNAKNTVYLQMNSLKPEDTAVYYCAARGYNYYFGGYDYWGQGTQVTVSS | low polyreactivity |
| QVQLVESGGGLVQAGGSLRISCAASGSIFSFYAMGWYRQAPGKERELVAAISSGGSTYYADSVKGRFTISRDNAKNTVYLQMNSLKPEDTAVYYCAHGFAQYGLDLDPGDYDYWGQGTQVTVSS | low polyreactivity |
| QVQLVESGGGLVQAGGSLRISCAASGSIFTSNVMGWYRQAPGKERELVAAITITGTTNYADSVKGRFTISRDNAKNTVYLQMNSLKPEDTAVYYCAKRYYRFYQGWPPEDYWGQGTQVTVSS | low polyreactivity |
| QVQLVESGGGLVQAGGSLRISCAASGSIFVEYDMGWYRQAPGKERELVADISGTGNTYYADSVKGRFTISRDNAKNTVYLQMNSLKPEDTAVYYCAAGTYYQNYWSPFVWYDYWGQGTQVTVSS | high polyreactivity |
